Measured values taken from the RNAGym collection of RNA variant scans (doi:10.7554/elife.90254).

B1: LINE1-mini (parent)
chain: GGCAGAGCUCAACACAGCGUGGCAAAGUGGCUGUGGCUAGACUGCC

Variants of: B1
Assay: self-cleavage, relative activity (ratio to wild type); higher = more cleavage; in vitro, sequencing; the parent is a self-cleaving ribozyme

| Variant | self-cleavage |
| --- | --- |
| G19A C37G | 0.03 |
| G17A G30U | 0.2 |
| G19A C46U | 1.74 |
| G30C C37A | 0.07 |
| G19C C23A | 0.37 |
| G17C G22C | 0.82 |
| U28A G40U | 0.12 |
| G1A G2C | 0.24 |
| A6C G21A | 1.34 |
| C46U | 1.03 |
| G7A G22A | 0.14 |
| G7U C46G | 0.09 |
| C8U U34A | 0.1 |
| G21U C37G | 0.04 |
| G21U C37U | 0.06 |
| A6C C46G | 0.46 |
| G7C G21C | 0.08 |
| C8G A26C | 0.14 |
| C18G C45A | 0.26 |
| C3U C23G | 0.46 |
| A24U C31A | 0.07 |
| A14G G29C | 0.37 |
| G17C G19A | 1.14 |
| C3U A39C | 0.19 |

| Variant | self-cleavage |
| --- | --- |
| G2C A24C | 0.06 |
| C15U | 1.03 |
| A4U C46U | 0.19 |
| C3G U32C | 0.14 |
| G19U G29C | 0.64 |
| A4C U28A | 0.07 |
| U9G U28A | 0.11 |
| U32A U34C | 0.15 |
| G1A A26U | 0.53 |
| G19A A24G | 1.45 |
| C37G C46A | 0.02 |
| A14G G19C | 0.25 |
| A16U C31G | 0.04 |
| G7U G44U | 0.2 |
| C15U U28A | 1.35 |
| A16G G19C | 0.5 |
| U34G G40C | 0.07 |
| C8A A14U | 0.25 |
| A4U C42G | 0.08 |
| C10G C37G | 0.01 |
| A16G G22U | 0.63 |
| G2U C45A | 0.45 |
| A25G U34G | 0.12 |
| G5C C18G | 0.04 |

| Variant | self-cleavage |
| --- | --- |
| G5C G7C | 0.08 |
| C42G C45G | 0.09 |
| G2C C10G | 0.03 |
| A26C C42G | 0.04 |
| A26C C42U | 0.48 |
| A25G G35C | 0.04 |
| C10A U20C | 0.06 |
| U34G G44U | 0.07 |
| C23G A24G | 0.88 |
| C10U C42G | 0.05 |
| G29C C45U | 0.67 |
| G2C G19A | 0.17 |
| C23U G30A | 2.05 |
| G5C C13G | 0.13 |
| C3A G22U | 0.71 |
| C18G G44C | 0.1 |
| C13A A24C | 0.18 |
| G5A U32C | 0.07 |
| C23G C45A | 0.79 |
| G7U C45U | 0.12 |
| G7U C45G | 0.29 |
| G30C C31A | 0.75 |
| C8G U20A | 0.08 |
| A11C U43A | 0.01 |

| Variant | self-cleavage |
| --- | --- |
| C15U U38C | 0.27 |
| U28C G35A | 0.21 |
| G1A C10U | 0.35 |
| C8A G30A | 0.42 |
| C8A C45G | 0.28 |
| A24U G35A | 0.12 |
| A4U G36U | 0.08 |
| G30U C45G | 0.29 |
| G17A U43A | 0.08 |
| G27C G33U | 0.12 |
| C37A G40U | 0.2 |
| C37A G40C | 0.2 |
| U20A G33C | 0.04 |
| U20A G33U | 0.07 |
| G1U | 0.33 |
| C23G C46G | 0.6 |
| A11U A14U | 0.08 |
| G17C U20C | 0.66 |
| C15U G17U | 0.11 |
| A12C A39U | 0.02 |
| A14G G22C | 0.31 |
| C8A G17A | 0.3 |
| A25G C45G | 0.17 |
| G17U A25U | 0.12 |

| Variant | self-cleavage |
| --- | --- |
| U34G G35U | 0.07 |
| G1A U43C | 0.11 |
| G19A G30U | 2.03 |
| G17C G27U | 1.06 |
| G7A A11U | 0.03 |
| A16C C31U | 0.03 |
| A16C C31A | 0.08 |
| A6U A14C | 0.11 |
| A12C C23U | 0.08 |
| C15G G17C | 0.04 |
| G21U A41C | 0.06 |
| A4C G29C | 0.24 |
| G7C G27C | 0.06 |
| G19U U38G | 0.02 |
| G5C A25C | 0.05 |
| A12C G17C | 0.02 |
| A12C G17A | 0.01 |
| A11U C37G | 0.02 |
| A12G U43G | 0.1 |
| A4C C37U | 0.16 |
| A6U G17C | 0.59 |
| C15U G30C | 0.09 |
| G19U C46U | 0.86 |
| A4G G27A | 0.4 |

| Variant | self-cleavage |
| --- | --- |
| G5U G21C | 0.09 |
| A14C U43A | 0.2 |
| A25C G30C | 1.64 |
| G5U U34C | 0.07 |
| C23G A41C | 0.04 |
| G5U U38G | 0.03 |
| G19A G22C | 0.71 |
| A11C G17A | 0.03 |
| C13G G36A | 0.29 |
| A24C U32A | 0.08 |
| A24U C46G | 1.03 |
| G17A C23G | 0.13 |
| G22U G27U | 1.46 |
| G7A C45G | 0.29 |
| C37A A39G | 0.05 |
| G17U G22U | 0.67 |
| A16G C18U | 0.33 |
| G5A G44U | 0.07 |
| U20A U28G | 0.28 |
| C23U G36U | 0.04 |
| G5U A41C | 0.07 |
| G29A G30C | 1.52 |
| A12U C13U | 0.14 |
| A25G G27C | 0.16 |

| Variant | self-cleavage |
| --- | --- |
| A4G C45G | 0.37 |
| G7U C37A | 0.05 |
| G5A U43C | 0.07 |
| U20G C23G | 0.38 |
| A4G A26G | 0.48 |
| G1A U20C | 0.33 |
| G1A G35U | 0.17 |
| G35U C42U | 0.11 |
| C8G U9G | 0.12 |
| C18A C23U | 1.29 |
| C31U G35C | 0.04 |
| A16C U38C | 0.1 |
| C18A C37A | 0.05 |
| A26C C45A | 0.8 |
| G22A U32A | 0.07 |
| G27A G36U | 0.08 |
| G21A G36U | 0.15 |
| A12C U34A | 0.02 |
| A39G | 0.1 |
| C13U C23G | 0.06 |
| C15A G22U | 0.08 |
| U34C C45G | 0.11 |
| A6G G29A | 0.08 |
